Assay results published in patent US20190255154.

Target: T1, acyl ghrelin (active hormone) in mouse blood, Q9EQX0
T1 chain: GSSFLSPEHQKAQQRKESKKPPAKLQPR

B1: native mouse BChE (wild-type mouse butyrylcholinesterase), expressed in mice from an AAV-8 vector (protein)
chain: EEDFIITTKTGRVRGLSMPVLGGTVTAFLGIPYAQPPLGSLRFKKPQPLNKWPDIHNATQYANSCYQNIDQAFPGFQGSEMWNPNTNLSEDCLYLNVWIPVPKPKNATVMVWIYGGGFQTGTSSLPVYDGKFLARVERVIVVSMNYRVGALGFLAFPGNPDAPGNMGLFDQQLALQWVQRNIAAFGGNPKSITIFGESAGAASVSLHLLCPQSYPLFTRAILESGSSNAPWAVKHPEEARNRTLTLAKFTGCSKENEMEMIKCLRSKDPQEILRNERFVLPSDSILSINFGPTVDGDFLTDMPHTLLQLGKVKKAQILVGVNKDEGTAFLVYGAPGFSKDNDSLITRKEFQEGLNMYFPGVSRLGKEAVLFYYVDWLGEQSPEVYRDALDDVIGDYNIICPALEFTKKFAELENNAFFYFFEHRSSKLPWPEWMGVMHGYEIEFVFGLPLGRRVNYTRAEEIFSRSIMKTWANFAKYGHPNGTQGNSTMWPVFTSTEQKYLTLNTEKSKIYSKLRAPQCQFWRLFFPKVLEMTGDIDETEQEWKAGFHRWSNYMMDWQNQFNDYTSKKESCTAL
  ratio of desacyl ghrelin (inactive peptide) over the active hormone in mouse blood, ghrelin ELISA, after AAV-BChE gene transfer (HCT116 colon cancer model): 2-fold rise
  ratio of desacyl ghrelin (inactive peptide) over the active hormone in mouse blood, ghrelin ELISA, after AAV-BChE gene transfer (triple negative PDX model): 2-fold rise
